Experimental data taken from PMC6395645, “Anopheline antiplatelet protein from mosquito saliva regulates blood feeding behavior” (Scientific Reports, 2019).

Molecular target: T1, Anopheline antiplatelet protein (AAPP) (Anopheles stephensi (endogenous in …, UniProt Q7YT37))
T1 construct: Anopheline antiplatelet protein (AAPP), predominant saliva protein of Anopheles stephensi; acidic secretory protein, Mr = 37 kDa on immunoblots; Same endogenous protein in saliva and in salivary gland lysates; in TG mosquitoes it is present together with mDsRed-8H7scFv; source: endogenous, Anopheles stephensi saliva and salivary gland lysates/homogenates (WT and TG mosquitoes)
Experiment: pull-down; Ni-NTA beads added to lysates (Cellytic M) of dissected salivary glands of TG and WT mosquitoes, 1 h on ice, washed with PBS; His-tagged mDsRed-8H7scFv held on the resin; eluate blotted with anti-AAPP mAb 28B8 and anti-mDsRed polyclonal Ab
Conditions: partners not purified

T1 sequence (Q7YT37 20-269): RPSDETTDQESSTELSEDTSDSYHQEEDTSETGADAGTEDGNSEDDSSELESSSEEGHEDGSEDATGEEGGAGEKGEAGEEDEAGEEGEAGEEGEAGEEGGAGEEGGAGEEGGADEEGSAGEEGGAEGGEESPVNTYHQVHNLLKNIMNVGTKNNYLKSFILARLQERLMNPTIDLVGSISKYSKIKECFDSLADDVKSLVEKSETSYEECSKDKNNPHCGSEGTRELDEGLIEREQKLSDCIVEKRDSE

B1: mDsRed-8H7scFv (scFv, V domains shown)
VH: QVQLQQPGAELVRPGASVKLSCKASGYTFTSYWMNWVKQRPGQGLEWIGLIDPSDSETHYNQMFKDKATLTVDKSSSTAYMQLSSLTSEDSAVYYCARGGTYWGQGTTLTVSS
VL: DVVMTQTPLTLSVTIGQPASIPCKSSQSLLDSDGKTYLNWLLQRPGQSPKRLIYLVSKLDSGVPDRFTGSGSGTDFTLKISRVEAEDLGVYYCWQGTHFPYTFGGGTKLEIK
notes: VH of the anti-AAPP mAb 8H7; hinge/linker, printed as (Gly4Ser)3; VL of the anti-AAPP mAb 8H7; 54.6 kDa on blots; 8H7scFv is fused to monomeric DsRed through Gly4Ser x 3 linkers; The secretion signal is not described; also called anti-AAPP scFv; anti-AAPP antibody single-chain fragment; source: transgenic Anopheles stephensi (TG-03, TG-30, TG-37), expressed in salivary glands under the aapp …
Does B1 bind?
Result: binds
